Where two headings read alike, the source gives them in different places.
Tests used:
[1] = molecular target: tRNA-guanine transglycosylase (TGT) (Escherichia coli) (UniProt P0A847); conditions: urea PAGE shift
[2] = molecular target: tRNA-guanine transglycosylase (TGT) (Escherichia coli) (UniProt P0A847); conditions: urea PAGE shift; best of composite hairpins

Sequence of tRNA-guanine transglycosylase (TGT) (Escherichia coli) (P0A847 whole entry): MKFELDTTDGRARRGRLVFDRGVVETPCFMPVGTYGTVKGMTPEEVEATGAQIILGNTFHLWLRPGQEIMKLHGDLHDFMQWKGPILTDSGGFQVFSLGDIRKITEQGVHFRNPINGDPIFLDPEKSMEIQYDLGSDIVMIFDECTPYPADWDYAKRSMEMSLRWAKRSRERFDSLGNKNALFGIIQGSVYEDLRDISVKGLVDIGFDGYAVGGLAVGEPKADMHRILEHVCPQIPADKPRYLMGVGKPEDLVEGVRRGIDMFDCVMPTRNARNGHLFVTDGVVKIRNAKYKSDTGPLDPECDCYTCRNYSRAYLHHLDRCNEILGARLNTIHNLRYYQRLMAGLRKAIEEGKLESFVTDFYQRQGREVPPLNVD

Row | Substance | activity [1] [% labeled] | other results
1 | Asp 17 nt DNA hairpin | 40 | –
2 | His 17 nt DNA hairpin | 40 | –
3 | His stem-Asp loop hairpin | – | activity [2]: > 50 % labeled
4 | Tyr 17 nt DNA hairpin | – | activity ([1]; printed as ~-5%): 5 % labeled

From patent US20240247250
